First the molecules themselves.
B1: CNGB1 subunit of the bovine rod CNG channel (natural protein)
chain: MLGWVQRVLPQPPGTPQKTKQEEEGTEPEPELEPKPETAPEETELEEVSLPPEEPCVGKEVAAVTLGPQGTQETALTPPTSLQAQVSVAPEAHSSPRGWVLTWLRKGVEKVVPQPAHSSRPSQNIAAGLESPDQQAGAQILGQCGTGGSDEPSEPSRAEDPGPGPWLLRWFEQNLEKMLPQPPKISEGWRDEPTDAALGPEPPGPALEIKPMLQAQESPSLPAPGPPEPEEEPIPEPQPTIQASSLPPPQDSARLMAWILHRLEMALPQPVIRGKGGEQESDAPVTCDVQTISILPGEQEESHLILEEVDPHWEEDEHQEGSTSTSPRTSEAAPADEEKGKVVEQTPRELPRIQEEKEDEEEEKEDGEEEEEEGREKEEEEGEEKEEEEGREKEEEEGEKKEEEGREKEEEEGGEKEDEEGREKEEEEGRGKEEEEGGEKEEEEGRGKEEVEGREEEEDEEEEQDHSVLLDSYLVPQSEEDRSEESETQDQSEVGGAQAQGEVGGAQALSEESETQDQSEVGGAQDQSEVGGAQAQGEVGGAQEQDGVGGAQDQSTSHQELQEEALADSSGVPATEEHPELQVEDADADSRPLIAEENPPSPVQLPLSPAKSDTLAVPGSATGSLRKRLPSQDDEAEELKMLSPAASPVVAWSDPTSPQGTDDQDRATSTASQNSAIINDRLQELVKLFKERTEKVKEKLIDPDVTSDEESPKPSPAKKAPEPAPEVKPAEAGQVEEEHYCEMLCCKFKRRPWKKYQFPQSIDPLTNLMYILWLFFVVLAWNWNCWLIPVRWAFPYQTPDNIHLWLLMDYLCDLIYLLDITVFQMRLQFVRGGDIITDKKEMRNNYVKSQRFKMDMLCLLPLDLLYLKFGVNPLLRLPRCLKYMAFFEFNNRLESILSKAYVYRVIRTTAYLLYSLHLNSCLYYWASAYEGLGSTHWVYDGVGNSYIRCYYWAVKTLITIGGLPDPRTLFEIVFQGLNYFTGVFAFSVMIGQMRDVVGAATAGQTYYRSCMDSTVKYMNFYKIPRSVQNRVKTWYEYTWHSQGMLDESELMVQLPDKMRLDLAIDVNYSIVSKVALFQGCDRQMIFDMLKRLRSVVYLPNDYVCKKGEIGREMYIIQAGQVQVLGGPDGKSVLVTLKAGSVFGEISLLAVGGGNRRTANVVAHGFTNLFILDKKDLNEILVHYPESQKLLRKKARRMLRNNNKPKEKSVLILPPRAGTPKLFNAALAAAGKMGAKGGRGGRLALLRARLKELAALEAAARQQQLLEQAKSSEDAAVGEEGSASPEQPPRPEPPAPEAPAPEPTAPEPLAPEAPAPEAPAPSSPPPASQERPEGDKDAARPEEHPVRIHVTLGPDPSEQILLVEVPEKQEEKEKKEEETEEKEEGEEARKEKEEE

One data set concerns the target bovine calmodulin (bovine, UniProt P62157 1-149). Put plainly: limited proteolysis-coupled mass spectrometry.
For data set [1], the target named is B1. Kind of data set: cryo-EM structure.
The data set “cryo-EM structure” deals with the molecule itself. Kind of data set: cryo-EM structure.

In the case of B1, the binding result with bovine calmodulin is on record as “binds”.

B2: CNGA1 subunit of the bovine rod CNG channel (natural protein, UniProt Q00194 1-690, looked up)
chain: MKKVIINTWHSFVNIPNVVGPDVEKEITRMENGACSSFSGDDDDSASMFEESETENPHARDSFRSNTHGSGQPSQREQYLPGAIALFNVNNSSNKEQEPKEKKKKKKEKKSKPDDKNENKKDPEKKKKKEKDKDKKKKEEKGKDKKEEEKKEVVVIDPSGNTYYNWLFCITLPVMYNWTMIIARACFDELQSDYLEYWLAFDYLSDVVYLLDMFVRTRTGYLEQGLLVKEERKLIDKYKSTFQFKLDVLSVIPTDLLYIKFGWNYPEIRLNRLLRISRMFEFFQRTETRTNYPNIFRISNLVMYIIIIIHWNACVYFSISKAIGFGNDTWVYPDVNDPDFGRLARKYVYSLYWSTLTLTTIGETPPPVRDSEYFFVVADFLIGVLIFATIVGNIGSMISNMNAARAEFQARIDAIKQYMHFRNVSKDMEKRVIKWFDYLWTNKKTVDEREVLKYLPDKLRAEIAINVHLDTLKKVRIFADCEAGLLVELVLKLQPQVYSPGDYICKKGDIGREMYIIKEGKLAVVADDGITQFVVLSDGSYFGEISILNIKGSKAGNRRTANIKSIGYSDLFCLSKDDLMEALTEYPDAKGMLEEKGKQILMKDGLLDINIANAGSDPKDLEEKVTRMESSVDLLQTRFARILAEYESMQQKLKQRLTKVEKFLKPLIDTEFSAIEGSGTESGPTDSTQD
Regarding B2, the binding result (in data set [1]; in “cryo-EM structure”; with bovine calmodulin) was “binds” in each case.

The record behind these values is PMC10104587 (Proceedings of the National Academy of Sciences of the …, 2023).
